Measured values: patent US6555328
Where a chain is given by its changes, count along the chain named. Names and notes keep the numbering of the source.

T1: hPER2-C-terminal YGFP protein (human Period 2, full-length ORF), O15055
T1 sequence (O15055 whole entry, looked up): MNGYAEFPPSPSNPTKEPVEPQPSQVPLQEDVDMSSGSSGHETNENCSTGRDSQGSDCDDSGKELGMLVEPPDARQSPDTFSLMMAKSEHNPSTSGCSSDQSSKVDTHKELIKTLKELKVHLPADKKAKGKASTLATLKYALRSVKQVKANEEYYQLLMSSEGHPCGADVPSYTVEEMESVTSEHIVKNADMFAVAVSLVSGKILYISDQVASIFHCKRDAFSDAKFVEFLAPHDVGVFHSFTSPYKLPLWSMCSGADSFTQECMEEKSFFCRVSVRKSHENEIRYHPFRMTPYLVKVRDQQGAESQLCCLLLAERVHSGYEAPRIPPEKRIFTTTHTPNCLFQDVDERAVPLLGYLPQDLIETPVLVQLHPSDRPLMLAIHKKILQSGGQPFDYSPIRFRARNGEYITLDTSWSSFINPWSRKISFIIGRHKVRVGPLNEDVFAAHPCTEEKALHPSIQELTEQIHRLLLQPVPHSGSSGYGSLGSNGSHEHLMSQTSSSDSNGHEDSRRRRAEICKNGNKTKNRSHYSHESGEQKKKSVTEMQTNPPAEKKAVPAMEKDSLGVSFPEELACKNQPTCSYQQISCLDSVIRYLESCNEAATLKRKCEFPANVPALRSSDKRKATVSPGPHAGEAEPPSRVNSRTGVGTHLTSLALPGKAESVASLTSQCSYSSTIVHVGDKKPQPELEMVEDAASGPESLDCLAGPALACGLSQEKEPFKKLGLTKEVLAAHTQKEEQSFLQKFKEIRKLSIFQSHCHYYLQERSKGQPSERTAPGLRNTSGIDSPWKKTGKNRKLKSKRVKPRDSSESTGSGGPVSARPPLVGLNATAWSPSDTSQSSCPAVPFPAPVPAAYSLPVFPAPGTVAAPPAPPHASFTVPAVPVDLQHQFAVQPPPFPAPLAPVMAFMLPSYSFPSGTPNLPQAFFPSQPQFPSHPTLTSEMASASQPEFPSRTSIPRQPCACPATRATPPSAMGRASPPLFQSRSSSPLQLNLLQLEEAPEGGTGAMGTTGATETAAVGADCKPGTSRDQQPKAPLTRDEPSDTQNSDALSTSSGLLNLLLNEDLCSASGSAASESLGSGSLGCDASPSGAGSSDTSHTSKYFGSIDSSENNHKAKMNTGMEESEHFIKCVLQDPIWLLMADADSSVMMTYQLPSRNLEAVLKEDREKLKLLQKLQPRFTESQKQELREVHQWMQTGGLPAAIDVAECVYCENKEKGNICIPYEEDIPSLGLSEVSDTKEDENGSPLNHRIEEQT

T2: Flag-tagged hPER1 (human Period 1, full-length open reading frame, amino acids 1 to 1289), O15534
T2 chain: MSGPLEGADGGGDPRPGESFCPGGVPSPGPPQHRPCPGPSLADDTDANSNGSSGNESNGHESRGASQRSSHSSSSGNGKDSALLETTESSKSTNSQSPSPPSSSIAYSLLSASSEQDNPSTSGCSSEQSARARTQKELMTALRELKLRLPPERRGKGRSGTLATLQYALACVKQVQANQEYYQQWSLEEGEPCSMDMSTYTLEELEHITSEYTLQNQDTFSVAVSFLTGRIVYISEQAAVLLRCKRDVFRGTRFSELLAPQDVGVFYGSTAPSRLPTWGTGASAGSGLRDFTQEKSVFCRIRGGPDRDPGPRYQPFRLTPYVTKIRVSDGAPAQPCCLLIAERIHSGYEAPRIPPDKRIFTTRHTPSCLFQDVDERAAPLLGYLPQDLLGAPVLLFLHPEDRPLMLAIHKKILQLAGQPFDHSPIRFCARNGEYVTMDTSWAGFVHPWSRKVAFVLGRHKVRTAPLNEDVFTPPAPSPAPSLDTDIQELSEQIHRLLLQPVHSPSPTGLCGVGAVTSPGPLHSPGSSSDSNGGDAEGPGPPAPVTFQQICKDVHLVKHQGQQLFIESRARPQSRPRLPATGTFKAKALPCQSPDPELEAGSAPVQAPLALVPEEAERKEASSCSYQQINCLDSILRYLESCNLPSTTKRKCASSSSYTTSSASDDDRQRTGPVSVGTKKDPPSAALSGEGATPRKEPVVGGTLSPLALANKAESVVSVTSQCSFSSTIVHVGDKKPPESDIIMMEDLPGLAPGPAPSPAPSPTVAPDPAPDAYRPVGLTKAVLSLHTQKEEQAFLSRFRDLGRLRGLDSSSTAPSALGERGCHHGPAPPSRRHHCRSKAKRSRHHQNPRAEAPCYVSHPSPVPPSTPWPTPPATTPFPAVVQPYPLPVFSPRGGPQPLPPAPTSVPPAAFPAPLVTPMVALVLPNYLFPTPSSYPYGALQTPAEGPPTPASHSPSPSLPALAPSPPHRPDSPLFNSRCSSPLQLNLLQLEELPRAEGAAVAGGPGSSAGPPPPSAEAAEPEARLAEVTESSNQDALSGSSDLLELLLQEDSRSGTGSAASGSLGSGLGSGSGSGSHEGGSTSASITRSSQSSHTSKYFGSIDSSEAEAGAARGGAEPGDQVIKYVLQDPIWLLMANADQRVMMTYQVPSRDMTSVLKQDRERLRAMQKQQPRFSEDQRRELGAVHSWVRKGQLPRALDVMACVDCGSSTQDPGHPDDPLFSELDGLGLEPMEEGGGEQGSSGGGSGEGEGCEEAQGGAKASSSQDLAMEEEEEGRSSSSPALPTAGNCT

B1: HA-tagged hCKIε (human casein kinase I ε, wild type, expressed from pCEP4-CKIε in 293T cells) (protein)
chain: YPDYDVPDYAMELRVGNKYRLGRKIGSGSFGDIYLGANIASGEEVAIKLECVKTKHPQLHIESKFYKMMQGGVGIPSIKWCGAEGDYNVMVMELLGPSLEDLFNFCSRKFSLKTVLLLADQMISRIEYIHSKNFIHRDVKPDNFLMGLGKKGNLVYIIDFGLAKKYRDARTHQHIPYRENKNLTGTARYASINTHLGIEQSRRDDLESLGYVLMYFNLGSLPWQGLKAATKRQKYERISEKKMSTPIEVLCKGYPSEFSTYLNFCRSLRFDDKPDYSYLRQLFRNLFHRQGFSYDYVFDWNMLKFGAARNPEDVDRERREHEREERMGQLRGSATRALPPGPPTGATANRLRSAAEPVASTPASRIQPAGNTSPRAISRVDRERKVSMRLHRGAPANVSSSDLTGRQEVSRIPASQTSVPFDHLGK
B2: recombinant his-tagged wild-type hCKIε, expressed in E. coli and purified (protein)
chain: MELRVGNKYRLGRKIGSGSFGDIYLGANIASGEEVAIKLECVKTKHPQLHIESKFYKMMQGGVGIPSIKWCGAEGDYNVMVMELLGPSLEDLFNFCSRKFSLKTVLLLADQMISRIEYIHSKNFIHRDVKPDNFLMGLGKKGNLVYIIDFGLAKKYRDARTHQHIPYRENKNLTGTARYASINTHLGIEQSRRDDLESLGYVLMYFNLGSLPWQGLKAATKRQKYERISEKKMSTPIEVLCKGYPSEFSTYLNFCRSLRFDDKPDYSYLRQLFRNLFHRQGFSYDYVFDWNMLKFGAARNPEDVDRERREHEREERMGQLRGSATRALPPGPPTGATANRLRSAAEPVASTPASRIQPAGNTSPRAISRVDRERKVSMRLHRGAPANVSSSDLTGRQEVSRIPASQTSVPFDHLGK
B3: hCKIε-K38R, kinase-negative mutant of hCKIε, expressed in 293T cells (protein)
chain: B2 chain with K38R
B4: recombinant histidine-tagged hCKIε-K38R, expressed in bacteria and purified (protein)
chain: B2 chain with K38R

Assays:
[1] = molecular target: T1, hPER2-C-terminal YGFP protein (human …)
[2] = molecular target: T2, Flag-tagged hPER1 (human Period 1, …)

GST-IkBα, sequence (P25963 whole entry): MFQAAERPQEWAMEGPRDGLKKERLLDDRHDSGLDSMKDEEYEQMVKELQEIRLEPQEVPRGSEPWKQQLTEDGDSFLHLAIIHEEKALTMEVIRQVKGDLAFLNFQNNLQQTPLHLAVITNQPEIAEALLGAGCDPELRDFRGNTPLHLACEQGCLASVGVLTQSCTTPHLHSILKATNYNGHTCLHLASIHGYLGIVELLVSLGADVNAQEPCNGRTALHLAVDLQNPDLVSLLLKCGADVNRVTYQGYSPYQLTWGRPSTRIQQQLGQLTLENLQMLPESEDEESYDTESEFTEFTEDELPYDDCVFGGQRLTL

Row | Protein | P32 incorporation into hPER2 in cpm [1] | Shift in hPER2 migration [1] | P32 incorporation [2] | in vitro kinase assay, 32P autoradiography (casein) | in vitro kinase assay, 32P autoradiography (GST-IkBα) | in vitro kinase assay, 32P autoradiography [2]
1 | B1 | 5000 cpm | + | co-transfection of hPER2 or hPER1 with CKIe resulted in the incorporation of p32 into both PER proteins |  |  | 
2 | B2 |  |  |  | Recombinant hCKIε phosphorylates both casein and IkBα substrates | Recombinant hCKIε phosphorylates both casein and IkBα substrates | The presence of hCKIε results in phosphorylation of hPER1
3 | B3 | 3000 cpm | - |  |  |  | 
4 | B4 |  |  |  | does not phosphorylate either casein or GST-IkBα substrates | does not phosphorylate either casein or GST-IkBα substrates | hCKIε-K38R has no kinase activity towards hPER1
